Numbered stars: 1 amine (or outer) side, 2 acyl side, 3 side chain; on linkers, the order of the positions; unused ones are H or OH. Square brackets hold non-standard residues; d marks the D form. Side chains are listed from the residue outwards. * marks the point of attachment. γGlu = O=C(O)[C@H](CCC(=O)[*:2])N[*:1]; Palmitoyl = CCCCCCCCCCCCCCCC(=O)*; Aib = CC(C)(N)C(=O)O
Legend:
[1] = target: T1, human GIP receptor (human, UniProt P48546 22-466); test: cell-based or functional assay
T1 sequence (looked up): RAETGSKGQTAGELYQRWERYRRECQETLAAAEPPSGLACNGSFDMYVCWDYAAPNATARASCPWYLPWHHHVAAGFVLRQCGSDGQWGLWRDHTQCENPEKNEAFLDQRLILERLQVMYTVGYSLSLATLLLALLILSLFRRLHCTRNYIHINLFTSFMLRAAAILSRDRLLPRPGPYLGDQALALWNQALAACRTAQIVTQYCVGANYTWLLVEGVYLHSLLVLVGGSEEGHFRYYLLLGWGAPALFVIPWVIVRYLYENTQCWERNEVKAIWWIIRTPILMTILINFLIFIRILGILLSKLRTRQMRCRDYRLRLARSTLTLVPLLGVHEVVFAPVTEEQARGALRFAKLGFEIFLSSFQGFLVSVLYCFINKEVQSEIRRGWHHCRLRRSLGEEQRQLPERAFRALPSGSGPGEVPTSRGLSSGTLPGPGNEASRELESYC

[2] = target: human GLP-1 receptor (human, UniProt P43220 24-463); test: cell-based or functional assay

B1: Compound 38 (peptide)
peptide: H-Y[Aib]EGTFTSDYSIYLEKKAAHDFVEWLLSA-NH2
SMILES: CC[C@H](C)[C@H](NC(=O)[C@H](CO)NC(=O)[C@H](Cc1ccc(O)cc1)NC(=O)[C@H](CC(=O)O)NC(=O)[C@H](CO)NC(=O)[C@@H](NC(=O)[C@H](Cc1ccccc1)NC(=O)[C@@H](NC(=O)CNC(=O)[C@H](CCC(=O)O)NC(=O)C(C)(C)NC(=O)[C@@H](N)Cc1ccc(O)cc1)[C@@H](C)O)[C@@H](C)O)C(=O)N[C@@H](Cc1ccc(O)cc1)C(=O)N[C@@H](CC(C)C)C(=O)N[C@@H](CCC(=O)O)C(=O)N[C@@H](CCCCN)C(=O)N[C@@H](CCCCN)C(=O)N[C@@H](C)C(=O)N[C@@H](C)C(=O)N[C@@H](Cc1c[nH]cn1)C(=O)N[C@@H](CC(=O)O)C(=O)N[C@@H](Cc1ccccc1)C(=O)N[C@H](C(=O)N[C@@H](CCC(=O)O)C(=O)N[C@@H](Cc1c[nH]c2ccccc12)C(=O)N[C@@H](CC(C)C)C(=O)N[C@@H](CC(C)C)C(=O)N[C@@H](CO)C(=O)N[C@@H](C)C(N)=O)C(C)C
[1]
  EC50, cAMP induction in HEK293 cells expressing human GIP R: 0.007 nM
[2]
  EC50, cAMP induction in HEK293 cells expressing human GLP-1 R: 0.018 nM

B2: Compound 4 (peptide)
peptide: H-Y[Aib]EGTFISDYSIYLEKIAAKEFVNWLLAQK-NH2
[1]
  EC50, cAMP induction in HEK293 cells expressing human GIP R: 0.022 nM
[2]
  EC50, cAMP induction in HEK293 cells expressing human GLP-1 R: 2.6 nM

B3: Compound 39 (peptide)
peptide: H-Y[Aib]EGTFTSDYSIYLEKKAQKEFVEWLLSA-NH2
SMILES: CC[C@H](C)[C@H](NC(=O)[C@H](CO)NC(=O)[C@H](Cc1ccc(O)cc1)NC(=O)[C@H](CC(=O)O)NC(=O)[C@H](CO)NC(=O)[C@@H](NC(=O)[C@H](Cc1ccccc1)NC(=O)[C@@H](NC(=O)CNC(=O)[C@H](CCC(=O)O)NC(=O)C(C)(C)NC(=O)[C@@H](N)Cc1ccc(O)cc1)[C@@H](C)O)[C@@H](C)O)C(=O)N[C@@H](Cc1ccc(O)cc1)C(=O)N[C@@H](CC(C)C)C(=O)N[C@@H](CCC(=O)O)C(=O)N[C@@H](CCCCN)C(=O)N[C@@H](CCCCN)C(=O)N[C@@H](C)C(=O)N[C@@H](CCC(N)=O)C(=O)N[C@@H](CCCCN)C(=O)N[C@@H](CCC(=O)O)C(=O)N[C@@H](Cc1ccccc1)C(=O)N[C@H](C(=O)N[C@@H](CCC(=O)O)C(=O)N[C@@H](Cc1c[nH]c2ccccc12)C(=O)N[C@@H](CC(C)C)C(=O)N[C@@H](CC(C)C)C(=O)N[C@@H](CO)C(=O)N[C@@H](C)C(N)=O)C(C)C
[1]
  EC50, cAMP induction in HEK293 cells expressing human GIP R: 0.0083 nM
[2]
  EC50, cAMP induction in HEK293 cells expressing human GLP-1 R: 0.011 nM

B4: Compound 33 (peptide)
peptide: H-Y[Aib]EGTFTSDYSIYLDKK([γGlu-Palmitoyl])AQRAFVEWLLAQGPSSGAPPPS-NH2
SMILES: CCCCCCCCCCCCCCCC(=O)N[C@@H](CCC(=O)NCCCC[C@H](NC(=O)[C@H](CCCCN)NC(=O)[C@H](CC(=O)O)NC(=O)[C@H](CC(C)C)NC(=O)[C@H](Cc1ccc(O)cc1)NC(=O)[C@@H](NC(=O)[C@H](CO)NC(=O)[C@H](Cc1ccc(O)cc1)NC(=O)[C@H](CC(=O)O)NC(=O)[C@H](CO)NC(=O)[C@@H](NC(=O)[C@H](Cc1ccccc1)NC(=O)[C@@H](NC(=O)CNC(=O)[C@H](CCC(=O)O)NC(=O)C(C)(C)NC(=O)[C@@H](N)Cc1ccc(O)cc1)[C@@H](C)O)[C@@H](C)O)[C@@H](C)CC)C(=O)N[C@@H](C)C(=O)N[C@@H](CCC(N)=O)C(=O)N[C@@H](CCCNC(=N)N)C(=O)N[C@@H](C)C(=O)N[C@@H](Cc1ccccc1)C(=O)N[C@H](C(=O)N[C@@H](CCC(=O)O)C(=O)N[C@@H](Cc1c[nH]c2ccccc12)C(=O)N[C@@H](CC(C)C)C(=O)N[C@@H](CC(C)C)C(=O)N[C@@H](C)C(=O)N[C@@H](CCC(N)=O)C(=O)NCC(=O)N1CCC[C@H]1C(=O)N[C@@H](CO)C(=O)N[C@@H](CO)C(=O)NCC(=O)N[C@@H](C)C(=O)N1CCC[C@H]1C(=O)N1CCC[C@H]1C(=O)N1CCC[C@H]1C(=O)N[C@@H](CO)C(N)=O)C(C)C)C(=O)O
[1]
  EC50, cAMP induction in HEK293 cells expressing human GIP R: 0.035 nM
[2]
  EC50, cAMP induction in HEK293 cells expressing human GLP-1 R: 0.031 nM

B5: Compound 40 (peptide)
peptide: H-Y[Aib]EGTFTSDYSIYLDEKAAKDFVEWLLSA-NH2
SMILES: CC[C@H](C)[C@H](NC(=O)[C@H](CO)NC(=O)[C@H](Cc1ccc(O)cc1)NC(=O)[C@H](CC(=O)O)NC(=O)[C@H](CO)NC(=O)[C@@H](NC(=O)[C@H](Cc1ccccc1)NC(=O)[C@@H](NC(=O)CNC(=O)[C@H](CCC(=O)O)NC(=O)C(C)(C)NC(=O)[C@@H](N)Cc1ccc(O)cc1)[C@@H](C)O)[C@@H](C)O)C(=O)N[C@@H](Cc1ccc(O)cc1)C(=O)N[C@@H](CC(C)C)C(=O)N[C@@H](CC(=O)O)C(=O)N[C@@H](CCC(=O)O)C(=O)N[C@@H](CCCCN)C(=O)N[C@@H](C)C(=O)N[C@@H](C)C(=O)N[C@@H](CCCCN)C(=O)N[C@@H](CC(=O)O)C(=O)N[C@@H](Cc1ccccc1)C(=O)N[C@H](C(=O)N[C@@H](CCC(=O)O)C(=O)N[C@@H](Cc1c[nH]c2ccccc12)C(=O)N[C@@H](CC(C)C)C(=O)N[C@@H](CC(C)C)C(=O)N[C@@H](CO)C(=O)N[C@@H](C)C(N)=O)C(C)C
[1]
  EC50, cAMP induction in HEK293 cells expressing human GIP R: 0.011 nM
[2]
  EC50, cAMP induction in HEK293 cells expressing human GLP-1 R: 0.022 nM

B6: Compound 34 (peptide)
peptide: H-Y[Aib]EGTFTSDYSIYLDEK([γGlu-Palmitoyl])AAKEFIEWLESA-NH2
SMILES: CCCCCCCCCCCCCCCC(=O)N[C@@H](CCC(=O)NCCCC[C@H](NC(=O)[C@H](CCC(=O)O)NC(=O)[C@H](CC(=O)O)NC(=O)[C@H](CC(C)C)NC(=O)[C@H](Cc1ccc(O)cc1)NC(=O)[C@@H](NC(=O)[C@H](CO)NC(=O)[C@H](Cc1ccc(O)cc1)NC(=O)[C@H](CC(=O)O)NC(=O)[C@H](CO)NC(=O)[C@@H](NC(=O)[C@H](Cc1ccccc1)NC(=O)[C@@H](NC(=O)CNC(=O)[C@H](CCC(=O)O)NC(=O)C(C)(C)NC(=O)[C@@H](N)Cc1ccc(O)cc1)[C@@H](C)O)[C@@H](C)O)[C@@H](C)CC)C(=O)N[C@@H](C)C(=O)N[C@@H](C)C(=O)N[C@@H](CCCCN)C(=O)N[C@@H](CCC(=O)O)C(=O)N[C@@H](Cc1ccccc1)C(=O)N[C@H](C(=O)N[C@@H](CCC(=O)O)C(=O)N[C@@H](Cc1c[nH]c2ccccc12)C(=O)N[C@@H](CC(C)C)C(=O)N[C@@H](CCC(=O)O)C(=O)N[C@@H](CO)C(=O)N[C@@H](C)C(N)=O)[C@@H](C)CC)C(=O)O
[1]
  EC50, cAMP induction in HEK293 cells expressing human GIP R: 0.045 nM
[2]
  EC50, cAMP induction in HEK293 cells expressing human GLP-1 R: 0.031 nM

B7: Compound 37 (peptide)
peptide: H-Y[Aib]EGTFTSDYSIYLEKKAAKDFVEWLLSA-NH2
SMILES: CC[C@H](C)[C@H](NC(=O)[C@H](CO)NC(=O)[C@H](Cc1ccc(O)cc1)NC(=O)[C@H](CC(=O)O)NC(=O)[C@H](CO)NC(=O)[C@@H](NC(=O)[C@H](Cc1ccccc1)NC(=O)[C@@H](NC(=O)CNC(=O)[C@H](CCC(=O)O)NC(=O)C(C)(C)NC(=O)[C@@H](N)Cc1ccc(O)cc1)[C@@H](C)O)[C@@H](C)O)C(=O)N[C@@H](Cc1ccc(O)cc1)C(=O)N[C@@H](CC(C)C)C(=O)N[C@@H](CCC(=O)O)C(=O)N[C@@H](CCCCN)C(=O)N[C@@H](CCCCN)C(=O)N[C@@H](C)C(=O)N[C@@H](C)C(=O)N[C@@H](CCCCN)C(=O)N[C@@H](CC(=O)O)C(=O)N[C@@H](Cc1ccccc1)C(=O)N[C@H](C(=O)N[C@@H](CCC(=O)O)C(=O)N[C@@H](Cc1c[nH]c2ccccc12)C(=O)N[C@@H](CC(C)C)C(=O)N[C@@H](CC(C)C)C(=O)N[C@@H](CO)C(=O)N[C@@H](C)C(N)=O)C(C)C
[1]
  EC50, cAMP induction in HEK293 cells expressing human GIP R: 0.0097 nM
[2]
  EC50, cAMP induction in HEK293 cells expressing human GLP-1 R: 0.018 nM

B8: Compound 35 (peptide)
peptide: H-Y[Aib]EGTFTSDYSIYLDKK([γGlu-Palmitoyl])AQRAFVNWLLA[Aib]KPSSGAPPPS-NH2
SMILES: CCCCCCCCCCCCCCCC(=O)N[C@@H](CCC(=O)NCCCC[C@H](NC(=O)[C@H](CCCCN)NC(=O)[C@H](CC(=O)O)NC(=O)[C@H](CC(C)C)NC(=O)[C@H](Cc1ccc(O)cc1)NC(=O)[C@@H](NC(=O)[C@H](CO)NC(=O)[C@H](Cc1ccc(O)cc1)NC(=O)[C@H](CC(=O)O)NC(=O)[C@H](CO)NC(=O)[C@@H](NC(=O)[C@H](Cc1ccccc1)NC(=O)[C@@H](NC(=O)CNC(=O)[C@H](CCC(=O)O)NC(=O)C(C)(C)NC(=O)[C@@H](N)Cc1ccc(O)cc1)[C@@H](C)O)[C@@H](C)O)[C@@H](C)CC)C(=O)N[C@@H](C)C(=O)N[C@@H](CCC(N)=O)C(=O)N[C@@H](CCCNC(=N)N)C(=O)N[C@@H](C)C(=O)N[C@@H](Cc1ccccc1)C(=O)N[C@H](C(=O)N[C@@H](CC(N)=O)C(=O)N[C@@H](Cc1c[nH]c2ccccc12)C(=O)N[C@@H](CC(C)C)C(=O)N[C@@H](CC(C)C)C(=O)N[C@@H](C)C(=O)NC(C)(C)C(=O)N[C@@H](CCCCN)C(=O)N1CCC[C@H]1C(=O)N[C@@H](CO)C(=O)N[C@@H](CO)C(=O)NCC(=O)N[C@@H](C)C(=O)N1CCC[C@H]1C(=O)N1CCC[C@H]1C(=O)N1CCC[C@H]1C(=O)N[C@@H](CO)C(N)=O)C(C)C)C(=O)O
[1]
  EC50, cAMP induction in HEK293 cells expressing human GIP R: 0.028 nM
[2]
  EC50, cAMP induction in HEK293 cells expressing human GLP-1 R: 0.022 nM

From patent US20150299281A1 (ZEALAND PHARMA A S, published 2015)
